Results published in the RNAGym collection of RNA variant scans (doi:10.7554/elife.80360).

B1: CPEB3 Ribozyme (parent)
chain: GGGGGCCACAGCAGAAGCGUUCACGUCGCGGCCCCUGUCAGAUUCUGGUGAAUCUGCGAAUUCUGCUGU

Variants of: B1
Assay: self-cleavage, relative activity (ratio to wild type); higher = more cleavage; co-transcriptional

Compared with G48C G65U, G48C G68A is higher in self-cleavage: 0.869 for the first, 0.971 for the second.

Compared with G48C U49A, G48C U49C is higher in self-cleavage: 0.976 for the first, 0.993 for the second.

First: G48C U49G
Second: G48C U53C
The self-cleavage of the first is higher: 1.06 for the first, 0.96 for the second.

Compared with G48C U53G, G48C U55A is higher in self-cleavage: 0.913 for the first, 1 for the second.

First: G48C U61C
Second: G48C U61G
The self-cleavage of the first is lower: 0.866 for the first, 0.907 for the second.

Going from G48C U62G to G48C U64C, the self-cleavage rises from 0.913 to 0.938.

Compared with G48C U67A, G48C U67C is lower in self-cleavage: 1.01 for the first, 0.998 for the second.

Compared with G48C U67G, G48C U69C is higher in self-cleavage: 1.04 for the first, 1.06 for the second.

Going from G48U to G48U A51C, the self-cleavage falls from 0.999 to 0.978.

Going from G48U A51G to G48U A51U, the self-cleavage rises from 0.959 to 1.

Going from G48U A52C to G48U A52G, the self-cleavage falls from 0.987 to 0.983.

Going from G48U A52U to G48U A59C, the self-cleavage falls from 0.969 to 0.739.

Going from G48U A59U to G48U A60C, the self-cleavage falls from 0.881 to 0.362.

Compared with G48U A60G, G48U C54G is higher in self-cleavage: 0.979 for the first, 1.03 for the second.

Going from G48U C57A to G48U C63A, the self-cleavage rises from 0.316 to 0.956.

First: G48U C63G
Second: G48U C63U
The self-cleavage of the first is lower: 0.878 for the first, 1.03 for the second.

Compared with G48U C66A, G48U C66U is higher in self-cleavage: 0.923 for the first, 0.978 for the second.

Compared with G48U G50A, G48U G50C is lower in self-cleavage: 1.03 for the first, 1.01 for the second.

Going from G48U G50U to G48U G56A, the self-cleavage falls from 0.99 to 0.945.

Going from G48U G56C to G48U G56U, the self-cleavage rises from 0.865 to 0.994.

First: G48U G58A
Second: G48U G58U
The self-cleavage of the first is lower: 0.963 for the first, 0.999 for the second.

Compared with G48U G65C, G48U G65U is higher in self-cleavage: 0.798 for the first, 0.909 for the second.

First: G48U G68A
Second: G48U G68C
The self-cleavage of the first is lower: 1.04 for the first, 1.05 for the second.

Going from G48U G68U to G48U U49A, the self-cleavage falls from 1.04 to 1.02.

Going from G48U U49C to G48U U49G, the self-cleavage rises from 0.981 to 1.01.

Compared with G48U U53C, G48U U53G is lower in self-cleavage: 1.04 for the first, 0.94 for the second.

First: G48U U55C
Second: G48U U55G
The self-cleavage of the first is higher: 0.977 for the first, 0.968 for the second.

First: G48U U61A
Second: G48U U61C
The self-cleavage of the first is higher: 0.924 for the first, 0.905 for the second.

First: G48U U62C
Second: G48U U64A
The self-cleavage of the first is lower: 0.929 for the first, 0.96 for the second.

Going from G48U U64C to G48U U64G, the self-cleavage rises from 0.876 to 0.955.

First: G48U U67A
Second: G48U U67C
The self-cleavage of the first is higher: 1.01 for the first, 1 for the second.

Compared with G48U U67G, G48U U69A is lower in self-cleavage: 1.05 for the first, 1.01 for the second.

Compared with G48U U69C, G48U U69G is higher in self-cleavage: 1.04 for the first, 1.05 for the second.

First: U49A A51U
Second: U49A A52G
The self-cleavage of the first is higher: 1 for the first, 0.979 for the second.

Compared with U49A A59C, U49A A59G is higher in self-cleavage: 0.798 for the first, 0.995 for the second.

Going from U49A A59U to U49A A60C, the self-cleavage falls from 0.85 to 0.394.

Compared with U49A A60G, U49A A60U is lower in self-cleavage: 0.915 for the first, 0.582 for the second.

Going from U49A C54A to U49A C54G, the self-cleavage rises from 0.641 to 0.947.

First: U49A C54U
Second: U49A C57A
The self-cleavage of the first is higher: 0.995 for the first, 0.273 for the second.

Compared with U49A C57G, U49A C63A is higher in self-cleavage: 0.346 for the first, 0.943 for the second.

Compared with U49A C63G, U49A C66A is higher in self-cleavage: 0.878 for the first, 0.911 for the second.

Compared with U49A C66G, U49A G50A is higher in self-cleavage: 0.96 for the first, 0.995 for the second.

Going from U49A G50C to U49A G56A, the self-cleavage falls from 1.02 to 1.

First: U49A G56U
Second: U49A G58C
The self-cleavage of the first is lower: 0.991 for the first, 1.02 for the second.

First: U49A G58U
Second: U49A G65A
The self-cleavage of the first is higher: 0.972 for the first, 0.934 for the second.

Compared with U49A G65C, U49A G68A is higher in self-cleavage: 0.476 for the first, 1.02 for the second.

Going from U49A G68C to U49A U53A, the self-cleavage falls from 0.994 to 0.984.

First: U49A U53G
Second: U49A U55A
The self-cleavage of the first is lower: 0.95 for the first, 0.968 for the second.

Going from U49A U61A to U49A U61G, the self-cleavage falls from 0.979 to 0.904.

Compared with U49A U62A, U49A U62C is lower in self-cleavage: 0.99 for the first, 0.825 for the second.

Compared with U49A U64C, U49A U64G is lower in self-cleavage: 0.919 for the first, 0.835 for the second.

First: U49A U67A
Second: U49A U69G
The self-cleavage of the first is lower: 1.05 for the first, 1.06 for the second.

First: U49C A51C
Second: U49C A51U
The self-cleavage of the first is higher: 0.981 for the first, 0.887 for the second.

First: U49C A52C
Second: U49C A52G
The self-cleavage of the first is higher: 1.03 for the first, 0.972 for the second.

Going from U49C A52U to U49C A59C, the self-cleavage falls from 0.93 to 0.764.

First: U49C A59G
Second: U49C A59U
The self-cleavage of the first is higher: 0.985 for the first, 0.811 for the second.

First: U49C A60C
Second: U49C A60U
The self-cleavage of the first is lower: 0.354 for the first, 0.535 for the second.

Compared with U49C C54G, U49C C54U is higher in self-cleavage: 0.789 for the first, 0.965 for the second.

Compared with U49C C57A, U49C C57G is higher in self-cleavage: 0.216 for the first, 0.265 for the second.

First: U49C C57U
Second: U49C C63A
The self-cleavage of the first is lower: 0.345 for the first, 0.882 for the second.

First: U49C C63G
Second: U49C C66G
The self-cleavage of the first is lower: 0.832 for the first, 0.879 for the second.

Going from U49C C66U to U49C G50C, the self-cleavage rises from 0.973 to 1.03.

Going from U49C G50U to U49C G56C, the self-cleavage falls from 1.03 to 0.778.

First: U49C G58A
Second: U49C G58U
The self-cleavage of the first is lower: 0.911 for the first, 0.988 for the second.

Compared with U49C G65A, U49C G65C is lower in self-cleavage: 0.89 for the first, 0.634 for the second.

First: U49C G65U
Second: U49C G68A
The self-cleavage of the first is lower: 0.79 for the first, 1.01 for the second.

First: U49C G68C
Second: U49C G68U
The self-cleavage of the first is lower: 0.998 for the first, 1.03 for the second.

Compared with U49C U53A, U49C U53C is lower in self-cleavage: 0.962 for the first, 0.948 for the second.

Going from U49C U53G to U49C U55A, the self-cleavage rises from 0.859 to 0.936.

Compared with U49C U55C, U49C U61G is higher in self-cleavage: 0.795 for the first, 0.829 for the second.

Compared with U49C U62C, U49C U62G is higher in self-cleavage: 0.827 for the first, 0.932 for the second.

Compared with U49C U64C, U49C U67A is higher in self-cleavage: 0.907 for the first, 0.946 for the second.

Going from U49C U67C to U49C U67G, the self-cleavage falls from 0.986 to 0.969.

U49C U69A and U49C U69C are the same in self-cleavage: 1.04 for the first, 1.04 for the second.

Compared with U49C U69G, U49G A51C is lower in self-cleavage: 1.05 for the first, 0.939 for the second.

Going from U49G A52C to U49G A52U, the self-cleavage rises from 0.952 to 0.986.

Compared with U49G A59C, U49G A60G is higher in self-cleavage: 0.68 for the first, 0.948 for the second.

Compared with U49G A60U, U49G C54U is higher in self-cleavage: 0.432 for the first, 0.972 for the second.

Compared with U49G C57A, U49G C57G is lower in self-cleavage: 0.425 for the first, 0.284 for the second.

Compared with U49G C57U, U49G C63A is higher in self-cleavage: 0.282 for the first, 0.952 for the second.

Compared with U49G C63G, U49G C63U is higher in self-cleavage: 0.907 for the first, 0.994 for the second.

First: U49G C66G
Second: U49G C66U
The self-cleavage of the first is lower: 0.908 for the first, 0.98 for the second.

Compared with U49G G50A, U49G G56A is lower in self-cleavage: 1.02 for the first, 0.966 for the second.

With U49G G56C the self-cleavage was 0.709.
